Tests used:
[1] = target: T1, human PD-1 expressed on PD-1 transfected CHO-S cells (human, UniProt Q15116); assay: flow cytometry on cells; competition: PD-1-transfected CHO-S cells with serial diluted antibody and 0.5 μg/mL biotin-labeled PD-L2, 4°C, 30 minutes; streptavidin-PE; details: one partner purified
T1 construct: human PD-1 on the surface of transfected CHO-S cells; also called cell-surface expressed PD-1; membrane PD-1; source: CHO-S, transfected, on cells

mouse PD-1-ECD-Fc = target: T2, mouse PD-1-ECD-Fc (Mus musculus, UniProt Q02242); assay: ELISA; PD-1-Fc proteins (9 ng per well) immobilized on 96-well plate overnight at 4°C; serial diluted HLX10, one hour at room temperature; detected with peroxidase-labeled goat anti-human IgG F(ab)'2; details: both partners purified
T2 construct: mouse PD-1 extracellular domain; also called murine PD-1; source: bought: Sino Biological Inc

rat PD-1 ECD-Fc = target: T3, rat PD-1 ECD-Fc (Rattus norvegicus, UniProt D3ZIN8); assay: as above; details: both partners purified
T3 construct: rat PD-1 extracellular domain; also called murine PD-1; source: bought: Sino Biological Inc

[2] = target: T4, human PD-1 (recombinant; construct not stated for this experiment) (Homo sapiens, UniProt Q15116); assay: SPR; format not told in the text shown (S1 Fig b, c); details: both partners purified
T4 construct: human PD-1; the ELISA and the SPR may have used different ones; SPR methods may stand in S1 File

[3] = target: T1, human PD-1 expressed on PD-1 …; assay: flow cytometry on cells; competition: PD-1-transfected CHO-S cells with serial diluted antibody and 5 μg/mL biotin-labeled PD-L1, 4°C, 30 minutes; streptavidin-PE; details: one partner purified
[4] = target: T5, recombinant cynomolgus monkey PD-1 His tag (Macaca fascicularis (cynomolgus monkey), UniProt B0LAJ3); assay: BLI; Octet Red96; antibodies (5 μg/ml) captured on protein A biosensor tips; serial dilution of PD-1 as analyte, 120 sec association, 300 sec dissociation; HBS-EP+ pH 7.4, 25°C, 1000 rpm; global 1:1 fit; apparent constants; details: both partners purified
T5 construct: cynomolgus monkey PD-1 extracellular domain; also called cynomolgus PD-1; source: bought: R&D Systems

- IC50 [1]: 6.46 nM
- binding result (mouse PD-1-ECD-Fc): no binding
- binding result (rat PD-1 ECD-Fc): no binding
- Kd [2]: 0.32 nM
- IC50 [3]: 4.36 nM
- Kd [4]: 4.78 ± 0.16 nM
- koff [4]: 0.000745 s⁻¹
- kon [4]: 153000 M⁻¹ s⁻¹
B1: HLX10, fully humanized IgG4 monoclonal antibody against PD-1 receptor (antibody, V domains shown)
VH: QVQLVESGGGLVKPGGSLRLSCAASGFTFSNYGMSWIRQAPGKGLEWVSTISGGGSNIYYADSVKGRFTISRDNAKNSLYLQMNSLRAEDTAVYYCVSYYYGIDFWGQGTSVTVSS
VL: DIQMTQSPSSLSASVGDRVTITCKASQDVTTAVAWYQQKPGKAPKLLIYWASTRHTGVPSRFSGSGSGTDFTLTISSLQPEDFATYYCQQHYTIPWTFGGGTKLEIK
notes: humanized VH (CDRs of chimeric c1G4 grafted on human germline IGHV3-11*04) on a human IgG4 constant region; humanized VL (CDRs of chimeric c1G4 grafted on human germline IGKV1-39*01); IgG4, hinge-stabilized; the PDB entry holds the Fab only; also called h1G4; hIG4

From PMC8719770 (PLoS ONE, 2021)
